From patent publication US6495346

What was measured:
Test in all cases: cell-based or functional assay
LCK-Gal4 = LCK-Gal4 (UniProt P04386)
m-fos-Gal4 (SV40) = target: m-fos-Gal4 (SV40)
wt-fos-Gal4 (SV40) = target: wt-fos-Gal4 (SV40)

Chain of m-jun-VP16 (P06492 411-455, tags or fused parts left off): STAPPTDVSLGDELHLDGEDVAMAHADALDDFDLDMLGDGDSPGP
Chain of wt-jun-VP16 (P06492 411-455, tags or fused parts left off): as above
Chain of CD4-VP16 (P06492 whole entry): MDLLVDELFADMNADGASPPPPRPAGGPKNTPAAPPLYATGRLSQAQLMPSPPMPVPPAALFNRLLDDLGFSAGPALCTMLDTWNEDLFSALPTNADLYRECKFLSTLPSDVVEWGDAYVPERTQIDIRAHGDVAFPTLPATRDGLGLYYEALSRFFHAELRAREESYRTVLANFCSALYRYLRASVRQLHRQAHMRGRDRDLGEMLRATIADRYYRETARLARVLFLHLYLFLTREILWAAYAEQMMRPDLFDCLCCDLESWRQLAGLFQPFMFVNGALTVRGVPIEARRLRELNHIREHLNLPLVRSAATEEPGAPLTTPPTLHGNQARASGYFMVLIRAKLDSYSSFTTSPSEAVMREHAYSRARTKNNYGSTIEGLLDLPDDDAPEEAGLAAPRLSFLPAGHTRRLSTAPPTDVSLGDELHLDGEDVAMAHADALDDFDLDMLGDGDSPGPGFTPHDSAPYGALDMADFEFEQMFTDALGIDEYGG

Substance | Luciferase values (RLU), MeWo cells, G0/G1-synchronized cells, 10xBS Gal4-SV40 promoter (Tyr-LCK-Gal4-CycACD4-VP16) (LCK-Gal4) | Luciferase values (RLU), MeWo cells, proliferating cells, 10xBS Gal4-SV40 promoter (Tyr-LCK-Gal4-CycACD4-VP16) (LCK-Gal4) | Luciferase values (RLU), MeWo cells, G0/G1-synchronized cells, 10xBS Gal4-SV40 promoter (m-fos-Gal4 (SV40)) | Luciferase values (RLU), MeWo cells, G0/G1-synchronized cells, 10xBS Gal4-SV40 promoter, both subunits on one plasmid (Tyr-m-fos-CycA-m-jun) (m-fos-Gal4 (SV40)) | Luciferase values (RLU), MeWo cells, proliferating cells, 10xBS Gal4-SV40 promoter (m-fos-Gal4 (SV40)) | Luciferase values (RLU), MeWo cells, proliferating cells, 10xBS Gal4-SV40 promoter, both subunits on one plasmid (Tyr-m-fos-CycA-m-jun) (m-fos-Gal4 (SV40)) | Luciferase values (RLU), MeWo cells, G0/G1-synchronized cells, 10xBS Gal4-SV40 promoter (wt-fos-Gal4 (SV40)) | Luciferase values (RLU), MeWo cells, proliferating cells, 10xBS Gal4-SV40 promoter (wt-fos-Gal4 (SV40))
CD4-VP16 (from UniProt P06492 406-488) | 5990 RLU | 72400 RLU |  |  |  |  |  | 
m-jun-VP16 (from UniProt P06492 411-455; P05412 276-312) |  |  | 271 RLU | 12700 RLU | 18300 RLU | 1.02e+06 RLU | 224 RLU | 290 RLU
wt-jun-VP16 (from UniProt P06492 411-455; P05412 276-312) |  |  | 283 RLU |  | 284 RLU |  |  | 
